Where a chain is given by its changes, count along the chain named. Names may count otherwise. Each block holds one binder with its values, some of them ahead of it.
Key:
[1] = biological target: full-length WT METTL1, unlabeled (without WDR4) (human, UniProt Q9UBP6 1-276); assay: NMR titration
[2] = biological target: full-length R109A/K111A METTL1, unlabeled (human, UniProt Q9UBP6 1-276, R109A | K111A); assay: NMR titration

binding result [1]: binds | binding result [2]: binds
B1: METTL1 1-75 (N-terminal segment of METTL1), isotope-labelled (domain or fragment, human, UniProt Q9UBP6 1-75, looked up)
chain: MAAETRNVAGAEAPPPQKRYYRQRAHSNPMADHTLRYPVKPEEMDWSELYPEFFAPLTQNQSHDDPKDKKEKRAQ

binding result [1]: binds
B2: S27D METTL1 1-75, isotope-labelled (domain or fragment, human, UniProt Q9UBP6 1-75, looked up)
chain: B1 chain with S27D
